In patent publication US20240376208A1 (AFFIMED, published 2024):
Like-named read-outs stand apart in the source and are kept apart here.

B1: Bi-scDb-Fc_02 (bispecific antibody, human IgG1)
chain: QVQLQESGPGLVKPSETLSLTCTVSGGSVSSGSYYWSWIRQPPGKGLEWIGYIYYSGSTNYNPSLKSRVTISVDTSKNQFSLKLSSVTAADTAVYYCARNPISIPAFDIWGQGTMVTVSSGGSGGSGGSGGSGGSGGSQPVLTQPPSVSVAPGKTARITCGGNNIGSKSVHWYQQKPGQAPVLVIYYDSDRPSGIPERFSGSNSGNTATLTISRVEAGDEADYYCQVWDTSSDHVLFGGGTKLTVLEPKSCDKTHTCPPCPAPEFEGGPSVFLFPPKPKDTLMISRTPEVTCVVVAVSHEDPEVKFNWYVDGVEVHNAKTKPREEQYNSTYRVVSVLTVLHQDWLNGKEYKCKVSNKALPAPIEKTISKAKGQPREPQVYTLPPSREEMTKNQVSLTCLVKGFYPSDIAVEWESNGQPENNYKTTPPVLDSDGSFFLYSKLTVDKSRWQQGNVFSCSVMHEALHNHYTQKSLSLSPGGGGGSGGGGSSYVLTQPSSVSVAPGQTATISCGGHNIGSKNVHWYQQRPGQSPVLVIYQDNKRPSGIPERFSGSNSGNTATLTISGTQAMDEADYYCQVWDNYSVLFGGGTKLTVLGGSGGSQVQLVQSGAEVKKPGESLKVSCKASGYTFTSYYMHWVRQAPGQGLEWMGAIEPMYGSTSYAQKFQGRVTMTRDTSTSTVYMELSSLRSEDTAVYYCARGSAYYYDFADYWGQGTLVTVSSGGSGGSGGSGGSGGSGGSSYVLTQPSSVSVAPGQTATISCGGHNIGSKNVHWYQQRPGQSPVLVIYQDNKRPSGIPERFSGSNSGNTATLTISGTQAMDEADYYCQVWDNYSVLFGGGTKLTVLGGSGGSQVQLVQSGAEVKKPGESLKVSCKASGYTFTSYYMHWVRQAPGQGLEWMGAIEPMYGSTSYAQKFQGRVTMTRDTSTSTVYMELSSLRSEDTAVYYCARGSAYYYDFADYWGQGTLVTVSS
notes: Anti-EGFR scFv - silenced Fc - anti-CD16A scDb; Four anti-CD16A and two anti-EGFR Fv domains
B2: aBi-scDb-Fc_05 (bispecific antibody)
chain 1: DKTHTCPPCPAPEFEGGPSVFLFPPKPKDTLMISRTPEVTCVVVAVSHEDPEVKFNWYVDGVEVHNAKTKPREEQYNSTYRVVSVLTVLHQDWLNGKEYKCKVSNKALPAPIEKTISKAKGQPREPQVYTLPPSREEMTKNQVSLTCLVKGFYPSDIAVEWESNGQPENNYKTTPPVLDSDGSFFLTSKLTVDKSRWQQGNVFSCSVMHEALHNHYTQKSLSLSPGGGGGSGGGGSSYVLTQPSSVSVAPGQTATISCGGHNIGSKNVHWYQQRPGQSPVLVIYQDNKRPSGIPERFSGSNSGNTATLTISGTQAMDEADYYCQVWDNYSVLFGGGTKLTVLGGSGGSQVQLVQSGAEVKKPGESLKVSCKASGYTFTSYYMHWVRQAPGQGLEWMGAIEPMYGSTSYAQKFQGRVTMTRDTSTSTVYMELSSLRSEDTAVYYCARGSAYYYDFADYWGQGTLVTVSSGGSGGSGGSGGSGGSGGSSYVLTQPSSVSVAPGQTATISCGGHNIGSKNVHWYQQRPGQSPVLVIYQDNKRPSGIPERFSGSNSGNTATLTISGTQAMDEADYYCQVWDNYSVLFGGGTKLTVLGGSGGSQVQLVQSGAEVKKPGESLKVSCKASGYTFTSYYMHWVRQAPGQGLEWMGAIEPMYGSTSYAQKFQGRVTMTRDTSTSTVYMELSSLRSEDTAVYYCARGSAYYYDFADYWGQGTLVTVSSAAAGSHHHHHH
chain 2: QVQLQESGPGLVKPSETLSLTCTVSGGSVSSGSYYWSWIRQPPGKGLEWIGYIYYSGSTNYNPSLKSRVTISVDTSKNQFSLKLSSVTAADTAVYYCARNPISIPAFDIWGQGTMVTVSSGGSGGSGGSGGSGGSGGSQPVLTQPPSVSVAPGKTARITCGGNNIGSKSVHWYQQKPGQAPVLVIYYDSDRPSGIPERFSGSNSGNTATLTISRVEAGDEADYYCQVWDTSSDHVLFGGGTKLTVLDKTHTCPPCPAPEFEGGPSVFLFPPKPKDTLMISRTPEVTCVVVAVSHEDPEVKFNWYVDGVEVHNAKTKPREEQYNSTYRVVSVLTVLHQDWLNGKEYKCKVSNKALPAPIEKTISKAKGQPREPQVYTLPPSREEMTKNQVSLYCLVKGFYPSDIAVEWESNGQPENNYKTTPPVLDSDGSFFLYSKLTVDKSRWQQGNVFSCSVMHEALHNHYTQKSLSLSPGGGGGSGGGGSSYVLTQPSSVSVAPGQTATISCGGHNIGSKNVHWYQQRPGQSPVLVIYQDNKRPSGIPERFSGSNSGNTATLTISGTQAMDEADYYCQVWDNYSVLFGGGTKLTVLGGSGGSQVQLVQSGAEVKKPGESLKVSCKASGYTFTSYYMHWVRQAPGQGLEWMGAIEPMYGSTSYAQKFQGRVTMTRDTSTSTVYMELSSLRSEDTAVYYCARGSAYYYDFADYWGQGTLVTVSSGGSGGSGGSGGSGGSGGSSYVLTQPSSVSVAPGQTATISCGGHNIGSKNVHWYQQRPGQSPVLVIYQDNKRPSGIPERFSGSNSGNTATLTISGTQAMDEADYYCQVWDNYSVLFGGGTKLTVLGGSGGSQVQLVQSGAEVKKPGESLKVSCKASGYTFTSYYMHWVRQAPGQGLEWMGAIEPMYGSTSYAQKFQGRVTMTRDTSTSTVYMELSSLRSEDTAVYYCARGSAYYYDFADYWGQGTLVTVSSGAAEPEA
notes: Asymmetric knob/hole Fc construct with four anti-CD16A Fv domains and only one anti-EGFR Fv domain; all other places print 158 and 159
B3: scFv-IgAb_43 (bispecific antibody)
heavy: QVQLQESGPGLVKPSETLSLTCTVSGGSVSSGSYYWSWIRQPPGKGLEWIGYIYYSGSTNYNPSLKSRVTISVDTSKNQFSLKLSSVTAADTAVYYCARNPISIPAFDIWGQGTMVTVSSASTKGPSVFPLAPSSKSTSGGTAALGCLVKDYFPEPVTVSWNSGALTSGVHTFPAVLQSSGLYSLSSVVTVPSSSLGTQTYICNVNHKPSNTKVDKKVEPKSCDKTHTCPPCPAPEFEGGPSVFLFPPKPKDTLMISRTPEVTCVVVAVSHEDPEVKFNWYVDGVEVHNAKTKPREEQYNSTYRVVSVLTVLHQDWLNGKEYKCKVSNKALPAPIEKTISKAKGQPREPQVYTLPPSREEMTKNQVSLTCLVKGFYPSDIAVEWESNGQPENNYKTTPPVLDSDGSFFLYSKLTVDKSRWQQGNVFSCSVMHEALHNHYTQKSLSLSPGGGGGSGGGGSGGGGSGGGGSGGGGSGGGGSSYVLTQPSSVSVAPGQTATISCGGHNIGSKNVHWYQQRPGQSPVLVIYQDNKRPSGIPERFSGSNSGNTATLTISGTQAMDEADYYCQVWDNYSVLFGGGTKLTVLGGSGGSGGSGGSGGSGGSGGSQVQLVQSGAEVKKPGESLKVSCKASGYTFTSYYMHWVRQAPGQGLEWMGAIEPMYGSTSYAQKFQGRVTMTRDTSTSTVYMELSSLRSEDTAVYYCARGSAYYYDFADYWGQGTLVTVSS
light: QPVLTQPPSVSVAPGKTARITCGGNNIGSKSVHWYQQKPGQAPVLVIYYDSDRPSGIPERFSGSNSGNTATLTISRVEAGDEADYYCQVWDTSSDHVLFGGGTKLTVLGQPKAAPSVTLFPPSSEELQANKATLVCLISDFYPGAVTVAWKADSSPVKAGVETTTPSKQSNNKYAASSYLSLTPEQWKSHRSYSCQVTHEGSTVEKTVAPTECS

Experiments:
[1] = molecular target: T1, biotinylated monomeric CD16A antigen (human, UniProt P08637 17-208, limits assumed, biotinylated (site not stated)); experiment: ELISA, biotinylated monomeric CD16A titrated on coated construct
T1 construct: Soluble antigen; also called soluble CD16A antigen
T1 sequence (P08637 17-208 limits assumed): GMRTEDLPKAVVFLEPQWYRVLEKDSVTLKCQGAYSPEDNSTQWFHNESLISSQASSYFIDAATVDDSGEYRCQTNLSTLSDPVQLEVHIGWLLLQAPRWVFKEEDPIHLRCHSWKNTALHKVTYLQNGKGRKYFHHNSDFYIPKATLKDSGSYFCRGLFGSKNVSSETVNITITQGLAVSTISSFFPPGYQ
Procedure: (§1) For the capturing approach, 96-well ELISA plates (Immuno Maxisorp, Nunc) were coated overnight at 4° C. with His-tagged human EGFR or BCMA extracellular domain at concentrations of 3.0 or 0.4 μg/mL, respectively. After blocking with 3% (w/v) skimmed milk powder dissolved in phosphate buffered saline (PBS), antigen coated plates were used for capturing of different multivalent bispecific engagers at concentrations of 3-5 μg/mL in PBS containing 0.3% (w/v) skimmed milk powder. After washing three times with 300 μL per well of PBS containing 0.1% (v/v) Tween 20, plates were incubated with serial dilutions of biotinylated dimeric or monomeric CD16A antigen in PBS containing 0.3% (w/v) skimmed milk powder for 1.5 h at room temperature. After washing, plates were incubated with the detection conjugate Streptavidin HRP, 1:10,000 diluted in PBS containing 0.3% (w/v) skimmed milk powder for 1 h followed by washing and incubation with tetramethylbenzidine substrate (Seramun) for 1-2 min. Reaction was stopped by addition of 0.5 M H₂SO₄ (100 μL/well). Absorbance was measured at 450 nm using a multiwell plate reader, plotted and EC₅₀ values were determined by fitting a nonlinear regression model to sigmoidal dose-response curves (four parameters logistic fit) using GraphPad Prism software.
(§2) Concentration dependent binding of antibody constructs to coated recombinant CD16A antigen, or of soluble monomeric or dimeric CD16 antigen variants to coated or target antigen captured antibody constructs was analyzed in ELISA. Half maximal binding concentrations (EC₅₀) were determined by fitting a nonlinear regression model to sigmoidal dose-response curves (four parameters logistic fit) using GraphPad Prism software.

[2] = molecular target: T2, biotinylated dimeric CD16A antigen (human, UniProt P08637 17-208, limits assumed, biotinylated (site not stated)); experiment: ELISA, biotinylated dimeric CD16A titrated on construct captured by coated His-tagged human EGFR extracellular domain
T2 construct: Soluble antigen; also called soluble CD16A antigen
T2 sequence (P08637 17-208 limits assumed): as above
Procedure: as §1, §2

[3] = molecular target: T1, biotinylated monomeric CD16A antigen; experiment: ELISA, biotinylated monomeric CD16A titrated on construct captured by coated His-tagged human EGFR extracellular domain
Procedure: as §1, §2

[4] = molecular target: CD16A on primary human NK cells (human, UniProt P08637 17-254); experiment: cell-based or functional assay
Sequence of CD16A on primary human NK cells (P08637 17-254 limits assumed): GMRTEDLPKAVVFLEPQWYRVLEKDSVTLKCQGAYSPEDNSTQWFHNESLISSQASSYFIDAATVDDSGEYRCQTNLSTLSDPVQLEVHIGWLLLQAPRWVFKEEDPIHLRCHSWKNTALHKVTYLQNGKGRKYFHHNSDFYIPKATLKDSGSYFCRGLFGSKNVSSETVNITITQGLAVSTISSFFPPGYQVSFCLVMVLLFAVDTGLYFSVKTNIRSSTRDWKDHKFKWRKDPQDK

[5] = molecular target: T3, EGFR on tumor target cells (MCF-7, Daudi, DK-MG, HCT-116) (UniProt P00533 25-1210, limits assumed); experiment: cell-based or functional assay
[6] = molecular target: recombinant CD16A 158V fused to monomeric human Fc (human, UniProt P08637 17-208); experiment: ELISA, construct titrated on coated CD16A 158V fused to monomeric human Fc
Sequence of recombinant CD16A 158V fused to monomeric human Fc (P08637 17-208 F176V): as the sequence (P08637 17-208 limits assumed) above, with F160V counted along it

[7] = molecular target: T3, EGFR on tumor target cells (MCF-7, …); experiment: cell-based or functional assay; remark: listed apart in the source
[8] = molecular target: T2, biotinylated dimeric CD16A antigen; experiment: ELISA, biotinylated dimeric CD16A titrated on coated construct
Procedure: as §1, §2

[9] = molecular target: T3, EGFR on tumor target cells (MCF-7, …); experiment: cell-based or functional assay; remark: listed apart in the source
[10] = molecular target: T4, recombinant CD16A 158F fused to monomeric human Fc (human, UniProt P08637 17-208); experiment: ELISA, construct titrated on coated CD16A 158F fused to monomeric human Fc
T4 construct: also called recombinant CD16 antigen variant; not shown: monomeric human Fc
T4 sequence (P08637 17-208): as the sequence (P08637 17-208 limits assumed) above
Procedure: To assess binding of EGFR/CD16 or BCMA/CD16 antibodies to coated antigen in ELISA, 96-well ELISA plates (Immuno Maxisorp, Nunc) were coated overnight at 4° C. with recombinant CD16 antigen variants fused to monomeric human Fc at a concentration of 1.5 μg/mL in 100 mM carbonate-bicarbonate buffer. After blocking with 3% (w/v) skimmed milk powder dissolved in phosphate buffered saline (PBS) serial dilutions of bispecific antibody constructs were incubated on the antigen coated plates for 1.5 h at room temperature. […] After washing, plates were incubated with tetramethylbenzidine substrate (Seramun) for 1-2 min. Reaction was stopped by addition of 0.5 M H₂SO₄ (100 μL/well). Absorbance was measured at 450 nm using a multiwell plate reader, plotted and EC₅₀ values were determined by fitting a nonlinear regression model to sigmoidal dose-response curves (four parameters logistic fit) using GraphPad Prism software.
as §2

| Binder | EC50 [1] | EC50 [2] | EC50 [3] | Emax [%], 4 h calcein-release NK cell fratricide assay, E:T 1:1 [4] | EC50 [pM], 4 h calcein-release cytotoxicity on Daudi target cells, NK cells E:T 5:1 [5] | Emax [%], 4 h calcein-release cytotoxicity on Daudi target cells, NK cells E:T 5:1 [5] | EC50 [6] | Emax [%], 4 h calcein-release cytotoxicity on Daudi target cells, NK cells E:T 5:1 [7] | EC50 [8] | EC50 [pM], 4 h calcein-release cytotoxicity on MCF-7 target cells, NK cells E:T 5:1 [9] | Emax [%], 4 h calcein-release cytotoxicity on MCF-7 target cells, NK cells E:T 5:1 [9] | EC50 [10] | EC50 [pM], 4 h calcein-release NK cell fratricide assay, E:T 1:1 [4] |
| --- | --- | --- | --- | --- | --- | --- | --- | --- | --- | --- | --- | --- | --- |
| B1 | 3.1 nM | 0.79 nM | 1.74 nM | 23% | 20.5 pM | 32.6% | 0.11 nM | 18.4% | 0.97 nM | 1.9 pM | 32.9% | 0.13 nM | – |
| B2 | 4.51 nM | 3 nM | 5.54 nM | 27.1% | 39.9 pM | 27.2% | 0.16 nM | – | 0.99 nM | 5 pM | 34.2% | 0.2 nM | – |
| B3 | – | – | – | 6.9% | 151 pM | 10% | – | 9.3% | – | 9.2 pM | 16.2% | – | 3510 pM |
